The text below walks through data of patent publication US20120009181A1, “Folate Receptor 1 Antibodies and Immunoconjugates and Uses Thereof” (published 2012).

Test [1] deals with human folate receptor 1 (FOLR1) (human). The experiment in a line: column head 'Apparent affinity (nM)'; method not restated (analyzed as described above: flow cytometry on FOLR1-expressing cells). A general note: Flow cytometry measures light scatter and fluorescence of single cells or particles in a stream.
Test [2] has the same target. Description: cell-based or functional assay.
Test [3] shares this target. The experiment in a line: cell-based or functional assay. This is another data set of the same source.
The target is the same in test [4]. Description: cell-based or functional assay. This is another data set of the same source.

Sequence of human folate receptor 1 (FOLR1) (human) (chain, as listed by the source limits assumed): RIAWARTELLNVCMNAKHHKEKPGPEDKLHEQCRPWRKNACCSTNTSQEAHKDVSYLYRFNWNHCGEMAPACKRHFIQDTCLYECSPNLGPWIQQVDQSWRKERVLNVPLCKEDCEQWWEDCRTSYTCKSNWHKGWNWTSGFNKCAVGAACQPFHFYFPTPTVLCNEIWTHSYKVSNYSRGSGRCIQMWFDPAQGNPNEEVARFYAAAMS

B1: huFR1-57 (antibody, V domains shown)
VH: EVQLVESGGGLVQPGGSRRLSCAASGFTFSSFGMHWVRQAPGKGLEWVAYISSGSSTISYADSVKGRFTISRDNSKKTLLLQMTSLRAEDTAMYYCAREAYGSSMEYWGQGTLVTVSS
VL: EIVLTQSPATLSVTPGDRVSLSCRASQNINNNLHWYQQKPGQSPRLLIKYVSQSVSGIPDRFSGSGSGTDFTLSISSVEPEDFGMYFCQQSNSWPHYTFGQGTKLEIKR
Turning to B1, the Kd in test [1] is 0.14 nM.

B2: huFR1-57-SMCC-DM1 (antibody, V domains shown)
VH: EVQLVESGGGLVQPGGSRRLSCAASGFTFSSFGMHWVRQAPGKGLEWVAYISSGSSTISYADSVKGRFTISRDNSKKTLLLQMTSLRAEDTAMYYCAREAYGSSMEYWGQGTLVTVSS
VL: EIVLTQSPATLSVTPGDRVSLSCRASQNINNNLHWYQQKPGQSPRLLIKYVSQSVSGIPDRFSGSGSGTDFTLSISSVEPEDFGMYFCQQSNSWPHYTFGQGTKLEIKR
modifications: maytansinoid DM1 linked to the antibody through the SMCC linker; drug load and attachment residues not stated
Take B2: the “huAb-smcc-DM1 activity on KB in vitro” value in test [2] came to 0.1 nM.

B3: huMov19 (antibody, V domains shown)
VH: QVQLVQSGAEVVKPGASVKISCKASGYTFTGYFMNWVKQSPGQSLEWIGRIHPYDGDTFYNQKFQGKATLTVDKSSNTAHMELLSLTSEDFAVYYCTRYDGSRAMDYWGQGTTVTVSS
VL: DIVLTQSPLSLAVSLGQPAIISCKASQSVSFAGTSLMHWYHQKPGQQPRLLIYRASNLEAGVPDRFSGSGSKTDFTLNISPVEAEDAATYYCQQSREYPYTFGGGTKLEIKR
With B3, the Kd in test [1] was found to be 0.06 nM.

B4: huMov19-SPP-DM1 (antibody, V domains shown)
VH: QVQLVQSGAEVVKPGASVKISCKASGYTFTGYFMNWVKQSPGQSLEWIGRIHPYDGDTFYNQKFQGKATLTVDKSSNTAHMELLSLTSEDFAVYYCTRYDGSRAMDYWGQGTTVTVSS
VL: DIVLTQSPLSLAVSLGQPAIISCKASQSVSFAGTSLMHWYHQKPGQQPRLLIYRASNLEAGVPDRFSGSGSKTDFTLTISPVEAEDAATYYCQQSREYPYTFGGGTKLEIKR
modifications: maytansinoid DM1 linked to the antibody through the SPP linker, 3.5-4 DM1 per antibody; attachment residues not stated
Take B4: in test [3], the “IC50, nM (n = 3), Ab-based; in vitro cytotoxicity on IGROV-1 cells” value is 0.1 nM; the “IC50, nM (n = 3), Ab-based; in vitro cytotoxicity on JEG-3 cells” value was 0.2 nM; the “IC50, nM (n = 3), Ab-based; in vitro cytotoxicity on KB cells” value turned out to be 0.1 nM.

B5: huFR1-48 (antibody, V domains shown)
VH: QVQLVQSGAEVAKPGASVKLSCKASGYTFTNYWMQWIKQRPGQGLEWIGAIYPGNGDSRYTQKFQGKATLTADKSSSTAYMQVSSLTSEDSAVYYCARRDGNYAAYWGQGTLVTVSA
VL: DIQMTQSPSSLSVSVGERVTITCRASENIYSNLAWYQQKPGKSPKLLVYAATNLADGVPSRFSGSESGTDYSLKINSLQPEDFGSYYCQHFWASPYTFGQGTKLEIKR
B5: the Kd in test [1] is 0.13 nM.

B6: huFR1-48-SMCC-DM1 (antibody, V domains shown)
VH: QVQLVQSGAEVAKPGASVKLSCKASGYTFTNYWMQWIKQRPGQGLEWIGAIYPGNGDSRYTQKFQGKATLTADKSSSTAYMQVSSLTSEDSAVYYCARRDGNYAAYWGQGTLVTVSA
VL: DIQMTQSPSSLSVSVGERVTITCRASENIYSNLAWYQQKPGKSPKLLVYAATNLADGVPSRFSGSESGTDYSLKINSLQPEDFGSYYCQHFWASPYTFGQGTKLEIKR
modifications: maytansinoid DM1 linked to the antibody through the SMCC linker; drug load and attachment residues not stated
Regarding B6, the “huAb-smcc-DM1 activity on KB in vitro” value in test [2] is 0.05 nM.

B7: huFR1-49-SMCC-DM1 (antibody, V domains shown)
VH: QVQLQQSGAVVAKPGASVKMSCKASGYTFTNYWMYWIKQRPGQGLELIGAIYPGNSDTTYNQKFQGKATLTAVTSANTVYMEVSSLTSEDSAVYYCTKRHDYGAMDYWGQGTSVTVSS
VL: DIQMTQSPSSLSVSVGERVTITCRASENIYTNLAWYQQKPGKSPKLLVYTASNLADGVPSRFSGSGSGTDYSLKINSLQPEDFGTYYCQHFWVSPYTFGQGTKLEIKR
modifications: maytansinoid DM1 linked to the antibody through the SMCC linker; drug load and attachment residues not stated
Turning to B7, the “huAb-smcc-DM1 activity on KB in vitro” value in test [2] is 0.1 nM.

B8: huFR1-49 (antibody, V domains shown)
VH: QVQLQQSGAVVAKPGASVKMSCKASGYTFTNYWMYWIKQRPGQGLELIGAIYPGNSDTTYNQKFQGKATLTAVTSANTVYMEVSSLTSEDSAVYYCTKRHDYGAMDYWGQGTSVTVSS
VL: DIQMTQSPSSLSVSVGERVTITCRASENIYTNLAWYQQKPGKSPKLLVYTASNLADGVPSRFSGSGSGTDYSLKINSLQPEDFGTYYCQHFWVSPYTFGQGTKLEIKR
Turning to B8, the Kd in test [1] is 0.08 nM.

B9: huFR1-21 (antibody, V domains shown)
VH: EVQLVESGGDVVKPGGSLKLSCAASGFTFSSYGMSWVRQTPGKGLECVATISSGGSYTYYSPGFQGRFTISRDKSKNTLYLQMSSLKAEDTAMYYCARDGEGGLYAMDYWGQGTSVTVSS
VL: DIQMTQSSSSLSVSVGGRVTITCKASDHINNWLAWYQQKPGKAPKLLISGATSLETGVPSRFSGSGSGKDYTLSISSLQPEDVATYYCQQYWSTPFTFGQGTKLEIKR
B9: in test [4], the “EC50 of ADCC activity on IGROV-1 cells” value was 0.11 ng/mL.

B10: huFR1-65 (antibody, V domains shown)
VH: QVQLVQSGAEVAKPGASVKMSCKASGYTFTSYTMHWVKQRPGQGLAWIGYINPISGYTNYNQKFQGKATLTADKSSSTAYMQLNSLTSEDSAVYYCASGGAYGRKPMDYWGQGTSVTVSS
VL: EIVMTQSPATMSTSPGDRVSVTCKASQNVGPNVAWYQQKPGQSPRALIYSASYRYSGVPARFTGSGSGTDFTLTISNMQSEDLAEYFCQQYNSYPYTFGQGTKLEIKR
As for B10, the Kd in test [1] came to 0.15 nM.

B11: huFR1-65-SMCC-DM1 (antibody, V domains shown)
VH: QVQLVQSGAEVAKPGASVKMSCKASGYTFTSYTMHWVKQRPGQGLAWIGYINPISGYTNYNQKFQGKATLTADKSSSTAYMQLNSLTSEDSAVYYCASGGAYGRKPMDYWGQGTSVTVSS
VL: EIVMTQSPATMSTSPGDRVSVTCKASQNVGPNVAWYQQKPGQSPRALIYSASYRYSGVPARFTGSGSGTDFTLTISNMQSEDLAEYFCQQYNSYPYTFGQGTKLEIKR
modifications: maytansinoid DM1 linked to the antibody through the SMCC linker; drug load and attachment residues not stated
With B11, the “huAb-smcc-DM1 activity on KB in vitro” value in test [2] worked out at 0.1 nM.
